# B1: TPR t1 (parent)
# chain: GACCAAUCUGCCCUCAGAGCUCGAGAACAUCUUCGGAUGCAGAGGAGGCAGGCUUCGGUGGCGCGAUAGCGCCAACGUCCUCAACCUCCAAUGCAUCCCACCACAUGAUGAUGCCUGAAGAGCCUUGGUUUUUUG
# Variants of: B1
# Assay: polymerase ribozyme fitness, log enrichment relative to wild type (log ratio); higher = more active; in vitro selection for triplet polymerase activity
# Outline: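 Mutant libraries for each subunit of a heterodimeric triplet polymerase ribozyme were made by PCR and then transcribed. Each library underwent one round of in vitro selection in triplicate: annealing with a biotinylated primer, the partner subunit and triplets, frozen incubation at −7 °C, gel excision of extended constructs, streptavidin-bead capture and RT-PCR. Input and output libraries were Illumina-sequenced, and only genotypes with ≥10 input reads and ≥1 read per output were kept. Fitness is the logarithm, base 2, of genotype enrichment over wild-type enrichment, computed from inverse-variance-weighted replicate averages.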
row,Variant,polymerase ribozyme fitness (log ratio)
1,A50C G117U,-2.95
2,G48U U92G,-3.54
3,G48U C64A C86G A111G G135A,-6.11
4,G47U G127C U130C,-2.06
5,G48A U87A,-0.877
6,C49A C73A C89U A105U,-3.83
7,A50C C124A,0.557
8,A50C G52C C56G G63A G77U,-6.51
9,G48U A50U A68G C89G U106A U116C C124U,-5.48
10,C49G G61C,-2.12
11,G48C C62U C64U C97U A100U C123A,-2.01
12,C49A C72U C97G G128C,-6.74
13,G48A U112C U133G,0.699
14,G47U U55C C56A C73G,-4.04
15,G48U C56A A105G A111G,-5.01
16,C49G C70G,-4.79
17,C49G C70A,-2.2
18,A50C C62A U106A A111G C114U C123A,-5.42
19,C49U U59G C72U,-1.12
20,G48C G93A A105C,-4.64
21,C49U C72G C89U,-1.07

row,Variant,polymerase ribozyme fitness (log ratio)
1,G48A G71C G117A,-1.66
2,C49A C101G,-2.23
3,C49U G69U C80A,-3.24
4,C49U G120C C123G,-0.212
5,G48A U54A C62U C82U C85A C104A,-2.99
6,C49A C123U,1.14
7,A50C U92G U112A G135A,-3.14
8,C49U G110A,-1.45
9,C49A A105C,-2.48
10,C49U G60C,-0.958
11,C49U G60U,-0.405
12,C49A C53A C79A C85U A111C,-2.83
13,A50C U116A U131A,-3.32
14,C49U C64U,-0.897
15,C49G G120U,0.305
16,G48A G61U C64U A84U,-3.63
17,C49U A68G A84C U131A,-4.91
18,G48U C94U,-1.2
19,G48U C94G,-1.44
20,C49U A74C,-0.435
21,A50G C123A,0.295

row,Variant,polymerase ribozyme fitness (log ratio)
1,G48C G128C,-2.75
2,C49A C94U U116A,-3.07
3,G48U U59A U78G U116A,-3.29
4,C49U A121C,1.39
5,C49U C124G,0.761
6,G48A G69U C123U,0.885
7,G48U A50U G60A C86G,-2.89
8,C49G G60A A75U G93U,-3.65
9,G48C C79U G128C,-4.29
10,G48U A118G U125G,-2.75
11,C49U C62A U96C,-1.91
12,C49U C73G,-0.732
13,G48U A90G U112A,-2.03
14,C49U G57U G61A G120A,-0.511
15,A50G A105C,-2.43
16,G48U C56G C72A C94A G110C,-5.78
17,A50C C89U,-1.06
18,C49U G63C C124U,0.36
19,A50C C56U,-0.0268
20,G48A C64U C89G C114U U126G,-6.43
21,A50G C85G,-0.79

row,Variant,polymerase ribozyme fitness (log ratio)
1,C49A C79U C114U G120U,-4.69
2,C49U G128U,-2.9
3,C49A C72U G77U C115A,-1.36
4,C49U G69U U78C U81A C114G G117U G127U,-5.33
5,G48A G52A,-0.371
6,C49G A90U G117A,-3.8
7,A50C C70A,-2.58
8,G48A G61C,-1.66
9,G48U A100C A105C C123U,-4.99
10,G48U G110A C124G U133A,-1.53
11,G48C C56G G110U,-1.56
12,G48U C56A U92A,-4.35
13,C49A C88G G120C,0.68
14,G48C G61U,0.754
15,C49G G57U C82G U96G,-2.49
16,C49G A90C U126C,-3.39
17,C49G G51C A119U U133C,-3.18
18,G48A C70A C86G G107C G110U,-5.84
19,G48A C62U,-0.525
20,G48A C72U U81C C102A A121C,-0.882

# — the RNAGym collection of RNA variant scans (doi:10.1073/pnas.2313332121)
